From patent US20200024330A1

Legend:
Experiment in all cases: cell-based or functional assay
[1] = biological target: HIV-1 IAVI-C22 envelope glycoprotein (Env) on pseudovirus (HIV-1)
[2] = biological target: HIV-1 94UG103 envelope protein (Env) on pseudotyped virus (HIV-1 isolate 94UG103)
[3] = biological target: HIV-1 SF162 envelope protein (Env) on pseudotyped virus (HIV-1 isolate SF162) (UniProt P19550)
[4] = biological target: HIV-1 92BR020 envelope protein (Env) on pseudotyped virus (HIV-1 isolate 92BR020)
[5] = biological target: aMLV envelope protein on pseudotyped virus (negative control) (aMLV)
[6] = biological target: HIV-1 Env of isolate MGRM-C-024 (subtype C), on pseudovirus (HIV-1)
[7] = biological target: HIV-1 Env of isolate MGRM-A-005 (HIV-1)
[8] = biological target: HIV-1 MGRM-C-027 envelope glycoprotein (Env) (HIV-1)
[9] = biological target: HIV-1 JRCSF envelope glycoprotein (Env) (HIV-1) (UniProt P20871)
[10] = biological target: HIV-1 Env of isolate MGRM-D-028 (HIV-1)
[11] = biological target: HIV-1 Env of isolate MGRM-A-013 (HIV-1)
[12] = biological target: HIV-1 Env of isolate MGRM-A-014 (HIV-1)
[13] = biological target: HIV-1 Env of isolate SC422661.8 (subtype B) (HIV-1)
[14] = biological target: HIV-1 Env of isolate MGRM-A-003 (HIV-1)
[15] = biological target: HIV-1 92RW020 Env (pseudovirus) (HIV-1)
[16] = biological target: HIV-1 MGRM-D-001 Env (pseudovirus) (HIV-1)
[17] = biological target: HIV-1 JRFL Env (pseudovirus) (HIV-1)
[18] = biological target: HIV-1 JRFL envelope glycoprotein (Env) on pseudovirus (HIV-1)
[19] = biological target: HIV-1 MGRM-AG-005 envelope glycoprotein (Env) on pseudovirus (HIV-1)
[20] = biological target: HIV-1 APV17 envelope glycoprotein (Env) on pseudovirus (HIV-1)

Sequence of 1443_C16 (PG16) (TCN-116) (antibody) (VH): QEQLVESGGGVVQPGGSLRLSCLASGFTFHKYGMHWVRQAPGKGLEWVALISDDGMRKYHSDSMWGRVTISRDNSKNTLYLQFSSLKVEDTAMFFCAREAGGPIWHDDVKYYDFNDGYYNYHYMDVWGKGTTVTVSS
Sequence of 1443_C16 (PG16) (TCN-116) (antibody) (VL): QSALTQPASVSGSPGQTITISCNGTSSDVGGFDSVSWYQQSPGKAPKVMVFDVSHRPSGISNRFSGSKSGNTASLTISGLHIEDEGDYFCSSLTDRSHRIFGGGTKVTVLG

## 2F5 (antibody)
[1]
  IC90 (pseudovirus neutralization): > 50 µg/mL

## 2G12 (antibody)
[1]
  IC90 (pseudovirus neutralization): > 50 µg/mL

## 4E10 (antibody)
[1]
  IC90 (pseudovirus neutralization): 16.4 µg/mL

## 1443_C16 (PG16) (TCN-116) (antibody)
[1]
  IC90 (pseudovirus neutralization): > 50 µg/mL
[2]
  IC50, pseudovirus neutralization, 1 hour Virus/Ab Incubation: 0.0211 µg/mL
  IC50, pseudovirus neutralization, 18 hour Virus/Ab Incubation: 0.0085 µg/mL
[3]
  IC50, pseudovirus neutralization, 1 hour Virus/Ab Incubation: > 50 µg/mL
  IC50, pseudovirus neutralization, 18 hour Virus/Ab Incubation: > 50 µg/mL
[4]
  IC50, pseudovirus neutralization, 1 hour Virus/Ab Incubation: > 50 µg/mL
  IC50, pseudovirus neutralization, 18 hour Virus/Ab Incubation: > 50 µg/mL
[5]
  IC50, pseudovirus neutralization, 1 hour Virus/Ab Incubation: > 50 µg/mL
  IC50, pseudovirus neutralization, 18 hour Virus/Ab Incubation: > 50 µg/mL

## 1495_C14 (PGC14) (antibody)
[2]
  IC50, pseudovirus neutralization, 1 hour Virus/Ab Incubation: > 50 µg/mL
  IC50, pseudovirus neutralization, 18 hour Virus/Ab Incubation: > 50 µg/mL
[3]
  IC50, pseudovirus neutralization, 1 hour Virus/Ab Incubation: 0.0069 µg/mL
  IC50, pseudovirus neutralization, 18 hour Virus/Ab Incubation: < 0.0025 µg/mL
[4]
  IC50, pseudovirus neutralization, 1 hour Virus/Ab Incubation: 1.17 µg/mL
  IC50, pseudovirus neutralization, 18 hour Virus/Ab Incubation: 0.244 µg/mL
[5]
  IC50, pseudovirus neutralization, 1 hour Virus/Ab Incubation: > 50 µg/mL
  IC50, pseudovirus neutralization, 18 hour Virus/Ab Incubation: > 50 µg/mL

## 1496_C09 (PG9) (TCN-109) (antibody)
[6]
  IC50 (µg/mL), pseudovirus neutralization: 0.227 µg/mL
[7]
  IC50: 0.75 µg/mL
[2]
  IC50, pseudovirus neutralization, 1 hour Virus/Ab Incubation: 0.334 µg/mL
  IC50, pseudovirus neutralization, 18 hour Virus/Ab Incubation: 0.0942 µg/mL
[8]
  IC50 neutralization: 2.45 µg/mL
[9]
  IC50 neutralization: 0.0048 µg/mL
[10]
  IC50 (µg/mL), pseudovirus neutralization: 20.2 µg/mL
[11]
  IC50 (µg/mL), pseudovirus neutralization: 0.122 µg/mL
[12]
  IC50 (µg/mL), pseudovirus neutralization: 1.25 µg/mL
[13]
  IC50 (µg/mL), pseudovirus neutralization: 1.48 µg/mL
[14]
  IC50: 1.94 µg/mL

## 4838_L06 (PGT-121) (antibody)
[15]
  neutralization IC80: 0.0188 µg/mL
  neutralization IC90: 0.0361 µg/mL
  neutralization IC95: 0.0671 µg/mL
[16]
  neutralization IC80: 3.29 µg/mL
  neutralization IC90: 6.26 µg/mL
  neutralization IC95: 9.39 µg/mL
[17]
  neutralization IC80: 0.0806 µg/mL
  neutralization IC90: 0.151 µg/mL
  neutralization IC95: 0.267 µg/mL

## 4858_P08 (PGT-123) (antibody)
[18]
  IC50 (ug/ml), neutralizing activity: 0.0283 µg/mL
  IC50, pseudovirus neutralization: 0.0283 µg/mL
  IC80, pseudovirus neutralization: 0.0904 µg/mL
  IC90 (pseudovirus neutralization): 0.178 µg/mL
  IC95, pseudovirus neutralization: 0.332 µg/mL
[19]
  IC50 (ug/ml), neutralizing activity: 0.104 µg/mL
  IC50, pseudovirus neutralization: 0.104 µg/mL
  IC80, pseudovirus neutralization: 1.28 µg/mL
  IC90 (pseudovirus neutralization): 6.38 µg/mL
  IC95, pseudovirus neutralization: > 10 µg/mL
[20]
  IC50 (ug/ml), neutralizing activity: 0.18 µg/mL
  IC50, pseudovirus neutralization: 0.18 µg/mL
  IC80, pseudovirus neutralization: 0.539 µg/mL
  IC90 (pseudovirus neutralization): 1.01 µg/mL
  IC95, pseudovirus neutralization: 1.75 µg/mL

## 4877_D15 (PGT-122) (antibody)
[18]
  IC50 (ug/ml), neutralizing activity: 0.0471 µg/mL
[19]
  IC50 (ug/ml), neutralizing activity: > 10 µg/mL
[20]
  IC50 (ug/ml), neutralizing activity: 0.522 µg/mL

## 5123_A06 (PGT-125) (antibody)
[18]
  IC50 (ug/ml), neutralizing activity: 0.0156 µg/mL
  neutralization IC50: 0.0156 µg/mL
  neutralization IC80: 0.0462 µg/mL
  neutralization IC90: 0.0873 µg/mL
  neutralization IC95: 0.157 µg/mL
[19]
  IC50 (ug/ml), neutralizing activity: > 10 µg/mL
  neutralization IC50: > 10 µg/mL
  neutralization IC80: > 10 µg/mL
  neutralization IC90: > 10 µg/mL
  neutralization IC95: > 10 µg/mL
[20]
  IC50 (ug/ml), neutralizing activity: 7.31 µg/mL
  neutralization IC50: 7.31 µg/mL
  neutralization IC80: > 10 µg/mL
  neutralization IC90: > 10 µg/mL
  neutralization IC95: > 10 µg/mL
